Assay results taken from patent publication EP4361176A1.

Columns and labels:
[1] = molecular target: human FcγRIIb extracellular domain with C-terminal His-tag (human) (UniProt P31994); experiment: SPR; binding amount / that of 04H1637-G1m/04L1610-lam1
[2] = molecular target: human FcγRIIb extracellular domain with C-terminal His-tag (human) (UniProt P31994); experiment: SPR (Biacore T200), FcγRIIb 1000 nM, amount bound per unit captured antibody

human FcγRIIb extracellular domain with C-terminal His-tag (human), sequence (P31994 43-217): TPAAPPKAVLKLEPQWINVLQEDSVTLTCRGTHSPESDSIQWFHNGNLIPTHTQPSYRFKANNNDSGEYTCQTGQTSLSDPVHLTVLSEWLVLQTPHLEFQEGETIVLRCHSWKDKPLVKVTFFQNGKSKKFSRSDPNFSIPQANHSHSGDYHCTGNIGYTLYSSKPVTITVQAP

B1: 04H1654-KT462/04L1610-lam1//04H1656-HT445/04L1610-lam1 (antibody, human IgG1, lambda)
heavy 1: QVQLVESGGGVVQPGGSLRLSCAASGFTFSSKTMNWVRQAPGKGLEWVSSISTQSHYIYYARSVRGRFTISRDNAKNSLYLQMNSLRAEDTAVYYCARYGKREDMLWVFDYWGQGTLVTVSSASTKGPSVFPLAPSSKSTSGGTAALGCLVKDYFPEPVTVSWNSGALTSGVHTFPAVLQSSGLYSLSSVVTVPSSSLGTQTYICNVNHKPSNTKVDKRVEPKSCDKTHTCPPCPAPEFQWGPMVFLFPPKPKDVLMISRTPEVTCVVVDVSDEEPEVKFNWYVDGVEVHNAKTKPREEQYNATYRVVSVLPVLHQDWLNGKEYKCKVSNDALPAPIEKTISKAKGQPREPQVYTLPPSRKEMTKNQVSLTCLVKGFYPSDIAVEWESNGQPENNYKTTPPVLDSDGSFFLYSKLTVDKSRWQQGNVFSCSVMHEALHNHYTQKSLSLSP
heavy 2: QVQLVESGGGVVQPGGSLRLSCAASGFTFSSKTMNWVRQAPGKGLEWVSSISTQSHYIYYAESVRGRFTISRDNAKNSLYLQMNSLRAEDTAVYYCARYGAREDMLWVFDYWGQGTLVTVSSASTKGPSVFPLAPSSKSTSGGTAALGCLVKDYFPEPVTVSWNSGALTSGVHTFPAVLQSSGLYSLSSVVTVPSSSLGTQTYICNVNHKPSNTKVDKRVEPKSCDKTHTCPPCPAPELLAGPSVFLFPPKPKDVLMISRTPEVTCVVVDVSHEEPEVKFNWYVDGVEVHNAKTKPREEQYNATYRVVSVLPVLHQDWLNGKEYKCKVSNDALPKPDEETISKAKGQPREPQVYTLPPSREEMTKNQVSLTCLVKGFYPSDIAVEWESNGQPENNYKTTPPVLDSDGSFFLYSKLTVDKSRWQQGNVFSCSVMHEALHNHYTQESLSLSP
light: QSALTQPPSASGSPGQSVTISCEGPSTGVGDYNWVHWYQQHPGKAPKLMIYFTSKKPSGVPDRFSGSKSGNTASLTVSGLQAEDEADYYCQTYAAPLGPMFGGGTKLTVLGQPKAAPSVTLFPPSSEELQANKATLVCLISDFYPGAVTVAWKADSSPVKAGVETTTPSKQSNNKYAASSYLSLTPEQWKSHRSYSCQVTHEGSTVEKTVAPTECS
B1 was tested, and the Relative binding amount [1] was 3.1 and the Binding amount [2] was 0.025.

B2: 04H1654-KT461/04L1610-lam1//04H1656-HT443/04L1610-lam1 (antibody, human IgG1, lambda)
heavy 1: QVQLVESGGGVVQPGGSLRLSCAASGFTFSSKTMNWVRQAPGKGLEWVSSISTQSHYIYYARSVRGRFTISRDNAKNSLYLQMNSLRAEDTAVYYCARYGKREDMLWVFDYWGQGTLVTVSSASTKGPSVFPLAPSSKSTSGGTAALGCLVKDYFPEPVTVSWNSGALTSGVHTFPAVLQSSGLYSLSSVVTVPSSSLGTQTYICNVNHKPSNTKVDKRVEPKSCDKTHTCPPCPAPEFQWGPMVFLFPPKPKDVLMISRTPEVTCVVVDVSDEEPEVKFNWYVDGVEVHNAKTKPREEQYNATYRVVSVLPVLHQDWLNGKEYKCKVSNDALPAPEEKTISKAKGQPREPQVYTLPPSRKEMTKNQVSLTCLVKGFYPSDIAVEWESNGQPENNYKTTPPVLDSDGSFFLYSKLTVDKSRWQQGNVFSCSVMHEALHNHYTQKSLSLSP
heavy 2: QVQLVESGGGVVQPGGSLRLSCAASGFTFSSKTMNWVRQAPGKGLEWVSSISTQSHYIYYAESVRGRFTISRDNAKNSLYLQMNSLRAEDTAVYYCARYGAREDMLWVFDYWGQGTLVTVSSASTKGPSVFPLAPSSKSTSGGTAALGCLVKDYFPEPVTVSWNSGALTSGVHTFPAVLQSSGLYSLSSVVTVPSSSLGTQTYICNVNHKPSNTKVDKRVEPKSCDKTHTCPPCPAPELLAGPSVFLFPPKPKDVLMISRTPEVTCVVVDVSHEEPEVKFNWYVDGVEVHNAKTKPREEQYNATYRVVSVLPVLHQDWLNGKEYKCKVSNDALPAPEEETISKAKGQPREPQVYTLPPSREEMTKNQVSLTCLVKGFYPSDIAVEWESNGQPENNYKTTPPVLDSDGSFFLYSKLTVDKSRWQQGNVFSCSVMHEALHNHYTQESLSLSP
light: QSALTQPPSASGSPGQSVTISCEGPSTGVGDYNWVHWYQQHPGKAPKLMIYFTSKKPSGVPDRFSGSKSGNTASLTVSGLQAEDEADYYCQTYAAPLGPMFGGGTKLTVLGQPKAAPSVTLFPPSSEELQANKATLVCLISDFYPGAVTVAWKADSSPVKAGVETTTPSKQSNNKYAASSYLSLTPEQWKSHRSYSCQVTHEGSTVEKTVAPTECS
For B2, the Relative binding amount [1] was 3.1 and the Binding amount [2] was 0.025.
